In article PMC4933286:

Assays:
[1] = molecular target: BTV-1 VP5 mutant 2 (R10L/K13L/K14L) (bluetongue virus serotype 1 (BTV-1)); assay: native gel or EMSA
[2] = molecular target: BTV-1 VP5 mutant 3 (K3L/R6L/R10L/K13L/K14L) (bluetongue virus serotype 1 (BTV-1)); assay: native gel or EMSA

BTV-1 VP5 mutant 2 (R10L/K13L/K14L) (natural protein)
stoichiometry N [1]: 3

BTV-1 VP5 mutant 3 (K3L/R6L/R10L/K13L/K14L) (natural protein)
stoichiometry N [2]: 3
